According to patent publication US20260001954A1 (Genentech, published 2026):

Columns and labels:
[1] = target: CD3 on T cells of human peripheral blood mononuclear cells (PBMCs) (human, UniProt P07766 23-207); experiment: cell-based or functional assay
[2] = target: T1, CD3 (cluster of differentiation 3) (UniProt P07766 23-126); experiment: method not stated; monovalent KD used to calculate CD3 receptor occupancy; monovalent KD, used for CD3 receptor occupancy
T1 construct: also called CD3 antigen
T1 sequence (P07766 23-126): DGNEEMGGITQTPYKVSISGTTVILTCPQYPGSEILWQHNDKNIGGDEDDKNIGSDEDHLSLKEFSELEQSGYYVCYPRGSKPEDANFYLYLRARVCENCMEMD

Sequence of CD3 on T cells of human peripheral blood mononuclear cells (PBMCs) (P07766 23-207): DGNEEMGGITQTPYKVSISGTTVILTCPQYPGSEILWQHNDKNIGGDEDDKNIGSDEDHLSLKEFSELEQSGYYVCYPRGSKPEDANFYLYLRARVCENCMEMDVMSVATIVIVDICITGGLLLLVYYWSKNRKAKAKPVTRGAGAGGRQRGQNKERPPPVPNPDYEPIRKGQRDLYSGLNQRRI

B1: cevostamab (bispecific antibody, human IgG1, kappa, N297G)
heavy 1: not shown
light 1: DIQMTQSPSSLSASVGDRVTITCKASQDVRNLVVWFQQKPGKAPKLLIYSGSYRYSGVPSRFSGSGSGTDFTLTISSLQPEDFATYYCQQHYSPPYTFGQGTKVEIKRTVAAPSVFIFPPSDEQLKSGTASVVCLLNNFYPREAKVQWKVDNALQSGNSQESVTEQDSKDSTYSLSSTLTLSKADYEKHKVYACEVTHQGLSSPVTKSFNRGEC
heavy 2: EVQLVQSGAEVKKPGASVKVSCKASGFTFTSYYIHWVRQAPGQGLEWIGWIYPENDNTKYNEKFKDRVTITADTSTSTAYLELSSLRSEDTAVYYCARDGYSRYYFDYWGQGTLVTVSSASTKGPSVFPLAPSSKSTSGGTAALGCLVKDYFPEPVTVSWNSGALTSGVHTFPAVLQSSGLYSLSSVVTVPSSSLGTQTYICNVNHKPSNTKVDKKVEPKSCDKTHTCPPCPAPELLGGPSVFLFPPKPKDTLMISRTPEVTCVVVDVSHEDPEVKFNWYVDGVEVHNAKTKPREEQYGSTYRVVSVLTVLHQDWLNGKEYKCKVSNKALPAPIEKTISKAKGQPREPQVYTLPPSREEMTKNQVSLSCAVKGFYPSDIAVEWESNGQPENNYKTTPPVLDSDGSFFLVSKLTVDKSRWQQGNVFSCSVMHEALHNHYTQKSLSLSPGK
light 2: not shown
notes: Humanized full-length non-glycosylated IgG1 kappa, knobs-into-holes; also called BFCR4350A; RO7187797
50% effective concentration (EC50) for T-cell activation in the in vitro human PBMC: MOLP-2 co-culture [1]: 58.8 ng/mL | Kd [2]: 2.6 nM
